The labels stand for the following.
B1: VHH Z70 (VHH)
VHH: EVQLQASGGVFVQSGGSLRLSCAASGATSTFDGMGWFRQAPGKEREFVSAISYEQGSYTYYADSVKGRFTISRDNSKNMVYLQMNSLRAEDTATYYCAPAYEGDLYAFDSYGGQGTQVTVSS
notes: VHH Z70; also in PDB 7QCQ; also called parent VHH; source: E. coli BL21 (DE3), periplasm, purified (IMAC, SEC)
B2: VHH Z70 mutant 9 (P101S + G115E) (VHH)
VHH: EVQLQASGGVFVQSGGSLRLSCAASGATSTFDGMGWFRQAPGKEREFVSAISYEQGSYTYYADSVKGRFTISRDNSKNMVYLQMNSLRAEDTATYYCASAYEGDLYAFDSYGEQGTQVTVSS
notes: as the chain of m1 (VHH Z70); also called Mut9; source: E. coli BL21 (DE3), periplasm, purified (IMAC, SEC)
B3: VHH Z70 mutant 1 (G115E) (VHH)
VHH: EVQLQASGGVFVQSGGSLRLSCAASGATSTFDGMGWFRQAPGKEREFVSAISYEQGSYTYYADSVKGRFTISRDNSKNMVYLQMNSLRAEDTATYYCAPAYEGDLYAFDSYGEQGTQVTVSS
notes: as the chain of m1 (VHH Z70); also called Mut1; source: E. coli BL21 (DE3), periplasm, purified (IMAC, SEC)
B4: VHH Z70 mutant 20 (R47K + G115E) (VHH)
VHH: EVQLQASGGVFVQSGGSLRLSCAASGATSTFDGMGWFRQAPGKEKEFVSAISYEQGSYTYYADSVKGRFTISRDNSKNMVYLQMNSLRAEDTATYYCAPAYEGDLYAFDSYGEQGTQVTVSS
notes: as the chain of m1 (VHH Z70); Generated by the authors, not found in the screen; also called Mut20; source: E. coli BL21 (DE3), periplasm, purified (IMAC, SEC)
B5: VHH Z70 mutant 12 (S23C + G115E) (VHH)
VHH: EVQLQASGGVFVQSGGSLRLCCAASGATSTFDGMGWFRQAPGKEREFVSAISYEQGSYTYYADSVKGRFTISRDNSKNMVYLQMNSLRAEDTATYYCAPAYEGDLYAFDSYGEQGTQVTVSS
notes: as the chain of m1 (VHH Z70); also called Mut12; source: E. coli BL21 (DE3), periplasm, purified (IMAC, SEC)
B6: VHH Z70 mutant 14 (VHH)
VHH: EVQLQASGGVFVQSGGSLRLSCAASGATSIFDGMGWFRQAPGKEREFVSAISYGQGSYTYYADSVKGRFTISRDNSKNMVYLQMNSLRAEDTATYYCAPAYEGDLYAFDSYGEQGTQVTVSS
notes: as the chain of m1 (VHH Z70); The text says only that G115E is combined with additional substitutions in mutant 14; also called Mut14; source: E. coli BL21 (DE3), periplasm, purified (IMAC, SEC)
B7: VHH Z70 mutant 5 (T96S) (VHH)
VHH: EVQLQASGGVFVQSGGSLRLSCAASGATSTFDGMGWFRQAPGKEREFVSAISYEQGSYTYYADSVKGRFTISRDNSKNMVYLQMNSLRAEDTASYYCAPAYEGDLYAFDSYGGQGTQVTVSS
notes: as the chain of m1 (VHH Z70); also called Mut5; source: E. coli BL21 (DE3), periplasm, purified (IMAC, SEC)
B8: VHH Z70 mutant 15 (R90G + P101S + G114E) (VHH)
VHH: EVQLQASGGVFVQSGGSLRLSCAASGATSTFDGMGWFRQAPGKEREFVSAISYEQGSYTYYADSVKGRFTISRDNSKNMVYLQMNSLGAEDTATYYCASAYEGDLYAFDSYEGQGTQVTVSS
notes: as the chain of m1 (VHH Z70); also called Mut15; source: E. coli BL21 (DE3), periplasm, purified (IMAC, SEC)
B9: VHH Z70 mutant 3 (R47K) (VHH)
VHH: EVQLQASGGVFVQSGGSLRLSCAASGATSTFDGMGWFRQAPGKEKEFVSAISYEQGSYTYYADSVKGRFTISRDNSKNMVYLQMNSLRAEDTATYYCAPAYEGDLYAFDSYGGQGTQVTVSS
notes: as the chain of m1 (VHH Z70); also called Mut3; source: E. coli BL21 (DE3), periplasm, purified (IMAC, SEC)

T1 sequence (P10636 other isoform, or with tags, fused parts or gaps): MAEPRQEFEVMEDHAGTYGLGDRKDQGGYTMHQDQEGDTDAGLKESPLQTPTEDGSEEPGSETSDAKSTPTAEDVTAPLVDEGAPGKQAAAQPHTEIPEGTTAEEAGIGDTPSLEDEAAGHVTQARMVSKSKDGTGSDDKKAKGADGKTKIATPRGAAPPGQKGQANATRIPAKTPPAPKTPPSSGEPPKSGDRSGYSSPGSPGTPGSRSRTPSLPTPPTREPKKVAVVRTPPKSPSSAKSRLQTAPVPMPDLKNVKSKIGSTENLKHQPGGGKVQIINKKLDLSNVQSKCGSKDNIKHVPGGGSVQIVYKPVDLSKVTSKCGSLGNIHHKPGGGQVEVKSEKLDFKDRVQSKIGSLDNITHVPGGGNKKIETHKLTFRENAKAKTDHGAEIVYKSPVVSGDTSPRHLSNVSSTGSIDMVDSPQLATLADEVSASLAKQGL

In the first test the target is tau 2N4R (recombinant; 15N-labelled for NMR) (Homo sapiens, UniProt P10636-8). As to the kind of experiment: cell-based or functional assay.
tau 2N4R (recombinant; 15N-labelled for NMR), sequence (P10636 other isoform, or with tags, fused parts or gaps): as above
Conditions: not given
Turning to B1, the “heparin-induced tau 2N4R aggregation, thioflavin fluorescence intensity ratio between tau with VHH and tau alone; VHH:tau 0.2:1 (46.2%) and 0.5:1 (25%)” value is 46.2%.

The next test concerns the target T1, biotinylated tau 2N4R (Homo sapiens, UniProt P10636-8, biotin (N-hydroxysuccimide-biotin conjugates, 5 M excess)).
T1 construct: tau protein, 2N4R isoform, NCBI NP_005901.2; Expressed from pET15b-tau; also called full-length tau; source: E. coli BL21 (DE3), purified (heating, cation exchange), then biotinylated
As to the kind of experiment: SPR; biotinylated tau 2N4R captured on a streptavidin chip (500 RU); VHHs as analytes, 0.125-2 uM, single-cycle kinetics; HBS-EP+ buffer; 1:1 Langmuir model; Kd calculated as koff/kon. Conditions: both partners purified.
As to B1, the dissociation constant (Kd) is 0.1478 ± 0.0009 µM, the koff was 0.00267 s⁻¹ and the kon is 18100 M⁻¹ s⁻¹.

Regarding B2, the dissociation constant Kd was 0.0511 ± 0.0006 µM, the koff is 0.00205 s⁻¹ and the on-rate constant (kon) was 40100 M⁻¹ s⁻¹.

B3: the Kd is 0.0227 ± 0.0005 µM, the koff was 0.00242 s⁻¹ and the kon is 107000 M⁻¹ s⁻¹.

Regarding B4, the Kd is 0.0418 ± 0.0007 µM, the koff is 0.00089 s⁻¹ and the association rate constant (kon) was 21300 M⁻¹ s⁻¹.

With B5, the Kd is 0.0612 ± 0.0006 µM, the koff was 0.00207 s⁻¹ and the kon was 33900 M⁻¹ s⁻¹.

Regarding B6, the Kd was 0.0743 ± 0.0008 µM, the koff was 0.0014 s⁻¹ and the kon was 18800 M⁻¹ s⁻¹.

Take B7: the dissociation constant Kd was 0.0808 ± 0.0015 µM, the koff was 0.000882 s⁻¹ and the on-rate constant (kon) is 10900 M⁻¹ s⁻¹.

In the case of B8, the Kd was 0.0425 ± 0.0007 µM, the koff was 0.00277 s⁻¹ and the on-rate (kon) was 65300 M⁻¹ s⁻¹.

As to B9, the equilibrium dissociation constant (Kd) is 0.0805 ± 0.0015 µM, the koff was 0.0021 s⁻¹ and the kon was 26000 M⁻¹ s⁻¹.

By Kd is commonly meant a measure of binding affinity in units of concentration. One may read the koff as a measure of how fast the partners let go of each other. By kon is commonly meant the second-order rate constant of association.

The record behind these values is paper PMC11007443, “A selection and optimization strategy for single-domain antibodies targeting the PHF6 linear peptide within the tau intrinsically disordered protein” (The Journal of Biological Chemistry, 2024).
